Measurements: patent publication US20220306759A1 (CYTOMX THERAPEUTICS, published 2022)
Changes are numbered by the printed parent chain. Read-outs that look alike come from different tables or passages of the source. Values belong to the binder of their own block, whether it stands above or below them.

Legend:
[1] = target: T1, human CD71 (transferrin receptor protein 1, TfR1) on human cell lines (human, UniProt P02786 1-760); assay: FACS on FaDu cells, uncleaved
T1 construct: whole, on cells; also called huCD71
Experimental: (§1) In this study, the binding of the antibodies of the present disclosure to the indicated cell lines were performed using a standard FACS labelling method.

[2] = target: T1, human CD71 (transferrin receptor …); assay: FACS on BxPC3 cells; Kd against CD71-Ab
Experimental: as §1

[3] = target: T1, human CD71 (transferrin receptor …); assay: FACS on HT29 cells; Kd against CD71-Ab
Experimental: as §1

[4] = target: T1, human CD71 (transferrin receptor …); assay: FACS on MDA MB 231 cells; Kd against CD71-Ab
Experimental: as §1

[5] = target: T2, recombinant human CD71 protein (human, UniProt P02786 89-760); assay: ELISA, 1 µg/mL CD71 on nickel plates, not activated
T2 construct: also called recombinant CD71
Experimental: (§2) The amount of bound antibody was detected by incubation and detection by goat anti-human antibody conjugated to horseradish peroxidase and Ultra TMB (Thermo Fisher Scientific) detection.

[6] = target: T1, human CD71 (transferrin receptor …); assay: FACS on BxPC3 cells, uncleaved
Experimental: as §1

[7] = target: T2, recombinant human CD71 protein; assay: ELISA; Kd against CD71 21.12
Experimental: as §2

[8] = target: T1, human CD71 (transferrin receptor …); assay: FACS on MDA MB 231 cells, uncleaved
Experimental: as §1

[9] = target: T1, human CD71 (transferrin receptor …); assay: FACS on HT29 cells, uncleaved
Experimental: as §1

[10] = target: T1, human CD71 (transferrin receptor …); assay: FACS on FaDu cells; Kd against CD71-Ab
Experimental: as §1

[11] = target: T2, recombinant human CD71 protein; assay: ELISA, 1 µg/mL CD71, uncleaved
Experimental: as §2

[12] = target: T2, recombinant human CD71 protein; assay: ELISA; Kd against CD71 21.12; remark: listed apart in the source
Experimental: as §2

[13] = target: T1, human CD71 (transferrin receptor …); assay: FACS on H292 cells, uncleaved
Experimental: In this study, the binding of the antibodies of the present disclosure to the indicated cell lines were performed using a standard FACS labelling method. […] These activatable antibodies include the light chain of the correspondingly named sequence listed above in Table C. The cells were labeled with the indicated test article at the indicated concentrations and subsequently detected with an Alexa Fluor 647 labeled goat anti-human IgG secondary antibody.

[14] = target: T2, recombinant human CD71 protein; assay: ELISA, 1 µg/mL recombinant human CD71, uncleaved
Experimental: as §2

[15] = target: T1, human CD71 (transferrin receptor …); assay: FACS on HCC1806 cells
Experimental: as §1

[16] = target: T1, human CD71 (transferrin receptor …); assay: FACS on H292 cells
Experimental: as §1

[17] = target: T1, human CD71 (transferrin receptor …); assay: FACS on MDA MB 231 cells
Experimental: as §1

[18] = target: T1, human CD71 (transferrin receptor …); assay: FACS on DMS 153 cells
Experimental: (§3) In this study, the binding of the antibodies and ADCs of the present disclosure to the indicated cell lines were performed using a standard FACS labelling method.

[19] = target: T1, human CD71 (transferrin receptor …); assay: FACS on DMS 79 cells
Experimental: as §3

[20] = target: T1, human CD71 (transferrin receptor …); assay: FACS on BxPC3 cells
[21] = target: T3, Human CD71-His6 (human, UniProt P02786 89-760, limits assumed); assay: BLI (Octet), CD71-His6 on Ni-NTA, Fab in solution
T3 construct: immobilized on Ni-NTA substrate (Octet); also called recombinant human CD71 protein with hexa-histidine tag
From the text: (§4) The recombinant CD71 proteins included a hexa-histidine (His6) peptide tag, by which the protein was immobilized to a Ni-NTA (nitrilotriacetic acid)-containing substrate.

[22] = target: T4, Cyno CD71-His6 (cynomolgus monkey, UniProt H9EXL1 89-760 (rhesus entry)); assay: BLI (Octet), CD71-His6 on Ni-NTA, Fab in solution
T4 construct: immobilized on Ni-NTA substrate (Octet); also called recombinant cynomolgus CD71 protein with hexa-histidine tag
From the text: as §4

T2 sequence (P02786 89-760 limits assumed): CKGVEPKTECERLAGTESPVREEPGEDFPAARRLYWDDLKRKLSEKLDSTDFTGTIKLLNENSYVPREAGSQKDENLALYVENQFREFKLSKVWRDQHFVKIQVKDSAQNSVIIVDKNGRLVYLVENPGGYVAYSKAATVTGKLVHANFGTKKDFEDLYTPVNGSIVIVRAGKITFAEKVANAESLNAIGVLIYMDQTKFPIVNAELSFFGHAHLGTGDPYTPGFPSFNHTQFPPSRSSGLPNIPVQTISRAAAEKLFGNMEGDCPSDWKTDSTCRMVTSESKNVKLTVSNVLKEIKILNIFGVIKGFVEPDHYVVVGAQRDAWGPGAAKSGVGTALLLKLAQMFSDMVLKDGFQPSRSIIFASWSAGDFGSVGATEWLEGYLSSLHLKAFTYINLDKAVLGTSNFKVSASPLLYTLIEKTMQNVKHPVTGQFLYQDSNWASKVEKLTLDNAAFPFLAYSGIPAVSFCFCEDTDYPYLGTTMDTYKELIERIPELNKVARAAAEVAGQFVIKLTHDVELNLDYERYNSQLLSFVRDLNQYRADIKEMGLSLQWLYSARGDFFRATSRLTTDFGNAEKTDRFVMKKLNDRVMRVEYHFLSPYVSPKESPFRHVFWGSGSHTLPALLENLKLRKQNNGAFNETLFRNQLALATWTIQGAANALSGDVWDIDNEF
T1 sequence (P02786 whole entry): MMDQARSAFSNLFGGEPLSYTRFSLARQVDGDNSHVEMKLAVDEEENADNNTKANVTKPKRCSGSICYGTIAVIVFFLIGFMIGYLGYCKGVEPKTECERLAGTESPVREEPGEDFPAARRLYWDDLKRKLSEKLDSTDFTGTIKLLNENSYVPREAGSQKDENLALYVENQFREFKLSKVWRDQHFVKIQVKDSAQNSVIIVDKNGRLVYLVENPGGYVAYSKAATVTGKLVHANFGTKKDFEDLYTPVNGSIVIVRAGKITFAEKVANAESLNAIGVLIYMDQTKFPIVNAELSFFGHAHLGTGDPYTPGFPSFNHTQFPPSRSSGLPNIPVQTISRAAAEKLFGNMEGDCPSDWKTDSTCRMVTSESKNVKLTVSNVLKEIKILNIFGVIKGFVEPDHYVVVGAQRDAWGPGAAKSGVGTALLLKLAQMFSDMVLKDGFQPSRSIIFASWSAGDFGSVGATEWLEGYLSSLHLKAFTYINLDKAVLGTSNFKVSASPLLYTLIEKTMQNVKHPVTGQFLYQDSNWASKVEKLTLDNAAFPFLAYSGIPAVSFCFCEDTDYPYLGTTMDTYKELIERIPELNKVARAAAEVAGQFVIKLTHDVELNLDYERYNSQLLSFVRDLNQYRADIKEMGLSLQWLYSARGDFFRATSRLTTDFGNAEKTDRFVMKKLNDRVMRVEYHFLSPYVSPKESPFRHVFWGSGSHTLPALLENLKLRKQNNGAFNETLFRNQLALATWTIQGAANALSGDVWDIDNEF
T4 sequence (chain, as listed by the source): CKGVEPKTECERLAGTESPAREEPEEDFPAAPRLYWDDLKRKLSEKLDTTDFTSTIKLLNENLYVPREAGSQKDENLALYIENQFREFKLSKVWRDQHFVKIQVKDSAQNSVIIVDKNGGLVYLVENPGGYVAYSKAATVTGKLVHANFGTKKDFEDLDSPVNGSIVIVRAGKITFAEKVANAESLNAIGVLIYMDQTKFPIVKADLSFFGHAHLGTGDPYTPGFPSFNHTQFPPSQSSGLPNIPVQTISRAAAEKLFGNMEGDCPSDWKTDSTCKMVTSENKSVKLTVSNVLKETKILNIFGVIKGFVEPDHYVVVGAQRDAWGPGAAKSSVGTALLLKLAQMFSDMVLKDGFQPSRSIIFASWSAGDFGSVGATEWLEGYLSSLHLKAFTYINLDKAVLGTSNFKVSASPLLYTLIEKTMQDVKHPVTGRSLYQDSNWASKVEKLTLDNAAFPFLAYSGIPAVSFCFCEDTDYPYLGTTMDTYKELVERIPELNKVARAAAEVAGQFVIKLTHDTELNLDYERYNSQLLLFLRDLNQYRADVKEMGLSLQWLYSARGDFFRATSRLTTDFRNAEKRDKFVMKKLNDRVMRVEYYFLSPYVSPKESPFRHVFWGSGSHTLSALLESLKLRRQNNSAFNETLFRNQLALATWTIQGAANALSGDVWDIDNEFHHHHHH
T3 sequence (P02786 other isoform, or with tags, fused parts or gaps limits assumed): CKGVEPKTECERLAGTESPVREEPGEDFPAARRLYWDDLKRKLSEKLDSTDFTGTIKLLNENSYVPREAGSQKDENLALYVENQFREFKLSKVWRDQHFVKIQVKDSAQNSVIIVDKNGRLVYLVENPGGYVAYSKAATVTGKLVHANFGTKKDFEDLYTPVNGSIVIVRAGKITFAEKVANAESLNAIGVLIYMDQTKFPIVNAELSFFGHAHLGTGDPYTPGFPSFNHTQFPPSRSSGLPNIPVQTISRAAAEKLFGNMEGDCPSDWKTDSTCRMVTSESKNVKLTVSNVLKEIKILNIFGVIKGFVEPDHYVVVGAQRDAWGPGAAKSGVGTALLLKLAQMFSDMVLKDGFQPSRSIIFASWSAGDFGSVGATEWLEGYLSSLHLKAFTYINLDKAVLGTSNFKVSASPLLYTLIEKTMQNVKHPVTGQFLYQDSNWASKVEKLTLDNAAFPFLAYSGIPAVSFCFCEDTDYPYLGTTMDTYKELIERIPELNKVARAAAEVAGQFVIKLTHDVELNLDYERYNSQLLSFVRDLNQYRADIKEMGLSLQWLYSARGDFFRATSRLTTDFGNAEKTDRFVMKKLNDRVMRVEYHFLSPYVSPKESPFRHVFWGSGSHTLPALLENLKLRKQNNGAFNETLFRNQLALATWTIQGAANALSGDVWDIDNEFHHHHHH

- Kd [1]: 15.4 nM
- ME (masking efficiency) [2]: 43 fold
- ME (masking efficiency) [3]: 39 fold
- ME (masking efficiency) [4]: 38 fold
- Kd [5]: 3 nM
- Kd [6]: 36.4 nM
- ME (masking efficiency) [7]: 9 fold
- Kd [8]: 32 nM
- Kd [9]: 19.7 nM
- ME (masking efficiency) [10]: 39 fold
- Kd [11]: 1.59 nM
- ME (masking efficiency) [12]: 11 fold
B1: anti-human CD71 TF02.18-2001 activatable antibody (antibody, human IgG1, kappa)
heavy: not shown
light: QGQSGQGCTEHSFALDCGGGSSGGSISSGLLSGRSDNHGGGSDIQMTQSPSSLSASVGDRVTITCSASSSVYYMYWFQQKPGKAPKLWIYSTSNLASGVPSRFSGSGSGTDYTLTISSMQPEDFATYYCQQRRNYPYTFGQGTKLEIKRTVAAPSVFIFPPSDEQLKSGTASVVCLLNNFYPREAKVQWKVDNALQSGNSQESVTEQDSKDSTYSLSSTLTLSKADYEKHKVYACEVTHQGLSSPVTKSFNRGEC
notes: also called CD71-ActAb 2

- Kd [1]: 14.7 nM
- ME (masking efficiency) [2]: 43 fold
- Kd [13]: 10.2 nM
- ME (masking efficiency) [3]: 45 fold
- Kd [14]: 0.813 nM
- ME (masking efficiency) [4]: 46 fold
- Kd [6]: 35.2 nM
- Kd [15]: ~200 nM
- Kd [8]: 38.8 nM
- Bmax (MFI) [16]: 1820 MFI
- Kd [16]: 52.1 nM
- Kd [17]: 30.6 nM
- Kd [9]: 23 nM
- ME (masking efficiency) [10]: 38 fold
B2: anti-human CD71 TF02.13-3001 activatable antibody (antibody, human IgG1, kappa)
heavy: not shown
light: QGQSGQGNLCTEHSAALDCRSYGGGSSGGSAVGLLAPPGGLSGRSDNHGGSDIQMTQSPSSLSASVGDRVTITCSASSSVYYMYWFQQKPGKAPKLWIYSTSNLASGVPSRFSGSGSGTDYTLTISSMQPEDFATYYCQQRRNYPYTFGQGTKLEIKRTVAAPSVFIFPPSDEQLKSGTASVVCLLNNFYPREAKVQWKVDNALQSGNSQESVTEQDSKDSTYSLSSTLTLSKADYEKHKVYACEVTHQGLSSPVTKSFNRGEC
notes: also called CD71-ActAb 1

- Kd [11]: 70 nM
- ME (masking efficiency) [12]: 500 fold
B3: anti-human CD71 TF01-2001 activatable antibody (antibody, human IgG1, kappa)
heavy: not shown
light: QGQSGQGQFCPWSYYLIGDCDIGGGSSGGSISSGLLSGRSDNHGGGSDIQMTQSPSSLSASVGDRVTITCSASSSVYYMYWFQQKPGKAPKLWIYSTSNLASGVPSRFSGSGSGTDYTLTISSMQPEDFATYYCQQRRNYPYTFGQGTKLEIKRTVAAPSVFIFPPSDEQLKSGTASVVCLLNNFYPREAKVQWKVDNALQSGNSQESVTEQDSKDSTYSLSSTLTLSKADYEKHKVYACEVTHQGLSSPVTKSFNRGEC
notes: also called huCD71 TF01-2001

- Kd [13]: 27.5 nM
- Kd [14]: 2.53 nM
- Kd [5]: 13 nM
- Kd [15]: ~200 nM
- ME (masking efficiency) [7]: 42 fold
- Bmax (MFI) [16]: 2210 MFI
- Kd [16]: 92.3 nM
- Kd [11]: 9.14 nM
- ME (masking efficiency) [12]: 65 fold
B4: anti-human CD71 TF02.13-2001 activatable antibody (antibody, human IgG1, kappa)
heavy: not shown
light: QGQSGQGNLCTEHSAALDCRSYGGGSSGGSISSGLLSGRSDNHGGGSDIQMTQSPSSLSASVGDRVTITCSASSSVYYMYWFQQKPGKAPKLWIYSTSNLASGVPSRFSGSGSGTDYTLTISSMQPEDFATYYCQQRRNYPYTFGQGTKLEIKRTVAAPSVFIFPPSDEQLKSGTASVVCLLNNFYPREAKVQWKVDNALQSGNSQESVTEQDSKDSTYSLSSTLTLSKADYEKHKVYACEVTHQGLSSPVTKSFNRGEC

- Kd [18]: 2.3 nM
- Kd [19]: 1.09 nM
B5: anti-human CD71 Ab21.12-Duoc (antibody, human IgG1, kappa)
heavy: not shown
light: DIQMTQSPSSLSASVGDRVTITCSASSSVYYMYWFQQKPGKAPKLWIYSTSNLASGVPSRFSGSGSGTDYTLTISSMQPEDFATYYCQQRRNYPYTFGQGTKLEIKRTVAAPSVFIFPPSDEQLKSGTASVVCLLNNFYPREAKVQWKVDNALQSGNSQESVTEQDSKDSTYSLSSTLTLSKADYEKHKVYACEVTHQGLSSPVTKSFNRGEC
modifications: duocarmycin conjugated to the antibody; chain and residues not stated
notes: antibody drug conjugate of Ab21.12; also called anti-human CD71 antibody conjugated to duocarmycin

- Kd [20]: ~3 nM
B6: anti-CD71 M21 monoclonal antibody (antibody, V domains shown)
VH: EVQLQESGTVLARPGASVKMSCKASGYTFTSYWMHWVKQRPGQGLEWIGAIYPGNSETGYNQNFKGKAKLTAVTSASTAYMDLSSLTNEDSAVYYCTRENWDPGFAFWGQGTLITVSA
VL: DIVMTQTPAIMSASPGEKVTITCSASSSVYYMYWFQQKPGTSPKLWIYSTSNLASGVPVRFSGSGSGTSYSLTISRMEAEDAATYYCQQRRNYPYTFGGGTKLEIKR
notes: mouse monoclonal antibody from hybridoma; also called muM21; Mab21

- binding result [20]: binds
B7: Ab21.10 LcB:HcA (antibody, V domains shown)
VH: QVQLVQSGAEVKKPGASVKVSCKASGYTFTSYWMHWVRQAPGQGLEWMGAIYPGNSETGYAQKFQGRVTMTRDTSTSTVYMELSSLRSEDTAVYYCARENWDPGFAFWGQGTLVTVSS
VL: DIQMTQSPSSLSASVGDRVTITCSASSSVYYMYWFQQKPGKAPKLWIYSTSNLASGVPSRFSGSGSGTDYTLTISSMQPEDFATYYCQQRRNYPYTFGQGTKLEIK
notes: humanized; detected with anti-human IgG; also called huCD71 Ab21.10

- Kd [21]: 14 nM
- koff [21]: 0.00398 s⁻¹
- kon [21]: 664000 M⁻¹ s⁻¹
- Kd [22]: 6 nM
- koff [22]: 0.00559 s⁻¹
- kon [22]: 390000 M⁻¹ s⁻¹
B8: anti-CD71 Fab fragment (papain digest of anti-CD71 21.12) (Fab, V domains shown)
VH: B7 VH with V20M, M48I, V68A, M70L, R72A, V79A, A97T, V114I
VL: DIQMTQSPSSLSASVGDRVTITCSASSSVYYMYWFQQKPGKAPKLWIYSTSNLASGVPSRFSGSGSGTDYTLTISSMQPEDFATYYCQQRRNYPYTFGQGTKLEIKR
